Measured values as given in the supplement of paper PMC10567573.

B1: DVL3 (parent)
chain: SDVVDWLYHNVEGFTDRREARKYA
B2: C10orf62 (parent)
chain: TSECPSDKDKSPESHKAKNESWIK

Variants of: B1
Test: protein stability index of a GFP-peptide fusion (GPS, HEK-293T) (PSI 1-6); higher = more stable
Conditions: c terminus: a fixed tail appended
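Note: lentivirally expressed fusions sorted by FACS into six bins by GFP to DsRed ratio, PSI derived from sequencing read proportions per bin multiplied by bin number.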

Row | Variant | protein stability index
1 | R18K | 2.97
2 | R18D | 3.99
3 | R18Q | 2.94
4 | R18F | 2.35
5 | R18T | 3.59
6 | R18A | 3.19
7 | R18G | 2.38
8 | R18W | 1.55
9 | R18N | 3.55
10 | R18C | 2.52
11 | R18H | 3.41
12 | R18L | 2.04
13 | R18Y | 2.19
14 | R18P | 3.03
15 | R18M | 2.4
16 | R18S | 3.43
17 | R18E | 3.84
18 | R18V | 3.53
19 | R18I | 2.42
20 | F14P | 3.61
21 | F14S | 4.19
22 | F14Q | 3.86
23 | F14G | 3.96
24 | F14H | 3.27

Row | Variant | protein stability index
25 | F14R | 2.56
26 | F14N | 3.61
27 | F14C | 3.04
28 | F14T | 3.87
29 | F14E | 4.77
30 | F14D | 3.95
31 | F14K | 4.76
32 | F14W | 3.18
33 | F14I | 3.97
34 | F14L | 3.11
35 | R21T | 3.88
36 | R21I | 2.33
37 | R21P | 2.66
38 | R21L | 3.1
39 | R21M | 2.35
40 | R21S | 2.84
41 | R21D | 3.52
42 | R21F | 2.65
43 | R21A | 2.48
44 | R21V | 2.78
45 | R21E | 3.57
46 | R21H | 3.02
47 | R21Y | 2.34
48 | R21K | 3.24

Row | Variant | protein stability index
49 | R21N | 3.21
50 | R21C | 2.31
51 | R21Q | 3.35
52 | R21W | 1.67
53 | R17K | 3.7
54 | R17T | 3.09
55 | R17F | 2.16
56 | R17H | 4.21
57 | R17Y | 2.45
58 | R17P | 3.33
59 | R17M | 2.63
60 | R17S | 3.9
61 | R17N | 2.65
62 | R17C | 3.43
63 | R17I | 1.82
64 | R17Q | 3.67
65 | R17W | 2
66 | R17A | 2.81
67 | R17L | 2.69
68 | R17E | 3.82
69 | R17V | 2.37
70 | R17D | 3.56
71 | D16F | 2.94
72 | D16Y | 2.06

Row | Variant | protein stability index
73 | D16Q | 3.19
74 | D16C | 1.92
75 | D16H | 2.37
76 | D16I | 3.24
77 | D16P | 3.74
78 | D16A | 2.45
79 | D16W | 2.12
80 | D16T | 2.66
81 | D16L | 2.07
82 | D16E | 3
83 | D16V | 2.24
84 | D16K | 2.29
85 | D16R | 2.21
86 | D16M | 2.29
87 | A24I | 1.95
88 | A24F | 2.82
89 | A24Y | 2.99
90 | A24H | 3.34
91 | A24N | 3.62
92 | A24D | 4.05
93 | A24T | 2.79
94 | A24M | 2.68
95 | A24Q | 3.71
96 | A24V | 2.74

Row | Variant | protein stability index
97 | A24E | 2.62
98 | A24R | 3.11
99 | A24L | 2.66
100 | A24C | 3.45
101 | A24W | 1.09
102 | A24P | 3.42
103 | A24K | 3.12
104 | G13W | 2.52
105 | G13P | 3.2
106 | G13L | 2.28
107 | G13K | 2.95
108 | G13A | 2.71
109 | G13R | 3.93
110 | G13D | 3.66
111 | G13E | 3.3
112 | G13V | 2.14
113 | G13Y | 2.1
114 | G13T | 2.93
115 | G13N | 2.66
116 | G13F | 1.61
117 | G13S | 2.96
118 | G13C | 2.68
119 | G13Q | 2.33
120 | G13H | 2.56

Row | Variant | protein stability index
121 | G13M | 2.71
122 | G13I | 2.28
123 | E12Y | 1.58
124 | A20Y | 2.34
125 | A20T | 3.16
126 | A20D | 3.1
127 | A20M | 3.28
128 | A20N | 2.96
129 | A20F | 2.28
130 | A20W | 2.18
131 | A20S | 3.43
132 | A20V | 1.83
133 | A20P | 4.29
134 | A20L | 2.34
135 | A20Q | 2.69
136 | A20R | 3.15
137 | A20H | 3.02
138 | A20G | 4.09
139 | A20I | 1.98
140 | A20K | 2.56
141 | A20C | 2.73
142 | A20E | 3.5
143 | K22R | 2.29
144 | K22T | 2.95

Row | Variant | protein stability index
145 | K22Y | 1.96
146 | K22S | 3.31
147 | K22C | 2.13
148 | K22P | 3.31
149 | K22V | 2.36
150 | K22E | 3.24
151 | K22D | 2.89
152 | K22N | 3.45
153 | K22L | 2.19
154 | K22W | 2.06
155 | K22G | 2.68
156 | K22H | 3
157 | K22M | 2.06
158 | K22A | 2.73
159 | K22I | 2.85
160 | K22Q | 2.81
161 | K22F | 1.83
162 | E19G | 3.02
163 | E19C | 2.38
164 | E19K | 2.33
165 | E19P | 2.85
166 | E19F | 2.34
167 | E19T | 2.64
168 | E19W | 1.82

Row | Variant | protein stability index
169 | E19Y | 1.73
170 | E19A | 2.54
171 | E19D | 3.18
172 | E19H | 2.58
173 | E19V | 2.66
174 | E19M | 2.67
175 | E19I | 2.25
176 | E19S | 2.73
177 | E19L | 2.35
178 | E19N | 2.86
179 | Y23I | 2.82
180 | Y23K | 3.83
181 | Y23W | 2.75
182 | Y23T | 3.55
183 | Y23D | 3.95
184 | Y23L | 3.15
185 | Y23N | 4.05
186 | Y23P | 3.97
187 | Y23R | 4.18
188 | Y23S | 4.11
189 | Y23F | 3.17
190 | Y23A | 4.21
191 | Y23H | 3.73
192 | Y23G | 4.05

Row | Variant | protein stability index
193 | Y23C | 3.69
194 | Y23V | 3.6
195 | Y23E | 3.97
196 | T15W | 2.74
197 | T15G | 2.7
198 | T15K | 2.56
199 | T15L | 2.91
200 | T15C | 2.67
201 | T15F | 2.15
202 | T15Y | 3.24
203 | T15I | 2.83
204 | T15R | 2.91
205 | T15A | 2.32
206 | T15M | 3.02
207 | T15V | 2.85
208 | T15N | 3.13
209 | T15Q | 3.21
210 | T15P | 2.92
211 | T15D | 3.04
212 | T15H | 3.23

Variants of: B2
Test: as above
Conditions: c terminus: a fixed tail appended

Row | Variant | protein stability index
213 | P5I | 3.86
214 | P5T | 2.9
215 | P5L | 3.33
216 | P5M | 3.08
217 | P5K | 3.24
218 | P5W | 3.04
219 | P5C | 2.8
220 | P5H | 3.75
221 | P5N | 3.94
222 | P5Y | 3.59
223 | P5G | 3.41
224 | P5V | 4.14
225 | P5A | 3.72
226 | P5Q | 3.32
227 | P5R | 3.45
228 | P5E | 3.84
229 | P5D | 3.84
230 | P5S | 3
231 | P5F | 3.28
232 | E3W | 2.63
233 | E3S | 3.34
234 | E3D | 2.73
235 | E3P | 4.09
236 | E3T | 3.27
237 | E3C | 3.01

Row | Variant | protein stability index
238 | E3I | 2.14
239 | E3K | 2.92
240 | E3Y | 2.73
241 | E3M | 2.88
242 | E3N | 3.36
243 | E3G | 3.73
244 | E3H | 2.84
245 | E3R | 3.21
246 | E3L | 3.5
247 | E3Q | 2.94
248 | E3V | 2.87
249 | E3A | 2.94
250 | T1E | 3.09
251 | T1L | 4.35
252 | T1I | 3.04
253 | T1D | 3.6
254 | T1A | 2.87
255 | T1W | 2.28
256 | T1V | 2.3
257 | T1K | 3.31
258 | T1H | 3.57
259 | T1C | 2.88
260 | T1Y | 3.14
261 | T1Q | 3.27
262 | T1M | 3.23

Row | Variant | protein stability index
263 | T1N | 3.38
264 | T1R | 4.3
265 | T1F | 3.08
266 | C4G | 3.94
267 | C4K | 3.51
268 | C4P | 3.39
269 | C4H | 3.34
270 | C4A | 3.53
271 | C4F | 3.33
272 | C4N | 3.4
273 | C4Q | 3.52
274 | C4E | 3.55
275 | C4W | 2.58
276 | C4I | 3.92
277 | C4D | 3.17
278 | C4T | 3.28
279 | C4L | 3.74
280 | C4M | 3.79
281 | C4R | 3.15
282 | C4Y | 3.15
283 | C4S | 2.46
284 | D7C | 3.2
285 | D7H | 2.88
286 | D7P | 3.6
287 | D7A | 2.6

Row | Variant | protein stability index
288 | D7L | 2.81
289 | D7K | 3.55
290 | D7R | 2.35
291 | D7G | 3.38
292 | D7F | 2.84
293 | D7M | 2.82
294 | D7Q | 3.2
295 | D7E | 2.57
296 | D7I | 2.3
297 | D7N | 3.11
298 | S2E | 3.98
299 | S2A | 2.63
300 | S2G | 3.26
301 | S2R | 4.43
302 | S2T | 3.03
303 | S2M | 3.17
304 | S2N | 3.74
305 | S2L | 3.24
306 | S2C | 3.96
307 | S2I | 3.25
308 | S2F | 3.12
309 | S2H | 3.47
310 | S2D | 3.7
311 | S2Q | 3.85
312 | S2K | 3.13

Row | Variant | protein stability index
313 | S2W | 3.64
314 | S2P | 3.17
315 | S2Y | 3.47
316 | S6D | 3.51
317 | S6K | 2.95
318 | S6H | 3.56
319 | S6W | 2.71
320 | S6P | 3.37
321 | S6N | 3.76
322 | S6R | 2.75
323 | S6Q | 3.75
324 | S6L | 3.82
325 | S6E | 3.71
326 | S6Y | 2.82
327 | S6A | 4.02
328 | S6I | 3.35
329 | S6V | 3.27
330 | S6T | 2.92
331 | S6G | 3.62
332 | S6C | 3.17
333 | S6M | 2.94
334 | S6F | 3.34
